Like-named read-outs stand apart in the source and are kept apart here.
Experiments:
[1] = biological target: T1, His-MBP-STF-HD (Medicago truncatula, UniProt G0ZGT3 85-190); experiment: EMSA
T1 sequence: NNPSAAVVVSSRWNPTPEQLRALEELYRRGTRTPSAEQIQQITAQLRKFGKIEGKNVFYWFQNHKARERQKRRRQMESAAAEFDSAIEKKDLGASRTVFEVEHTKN

[2] = biological target: T1, His-MBP-STF-HD; experiment: EMSA; remark: listed apart in the source

B1: MtLOB39 promoter P2 (dsDNA)
DNA 1: TATTCAAATTAATGATTTATTCAATTTT
DNA 2: AAAATTGAATAAATCATTAATTTGAATA
binding result [1]: binds

B2: MtLOB38 promoter P1 (dsDNA)
DNA 1: AAAAAAAAATTATATATTAATAGTAATAAATAATAAAAAATAAT
DNA 2: ATTATTTTTTATTATTTATTACTATTAATATATAATTTTTTTTT
binding result [2]: binds

B3: MtLOB39 promoter P1 (dsDNA)
DNA 1: GACCAATCAATGTTGAAAATGTAGAATATT
DNA 2: AATATTCTACATTTTCAACATTGATTGGTC
binding result [1]: binds

B4: MtLOB39 promoter P3 (dsDNA)
DNA 1: CTTTCAATTATACATTTTAATTAATATTAATTT
DNA 2: AAATTAATATTAATTAAAATGTATAATTGAAAG
binding result [1]: binds

B5: MtLOB38 promoter P2 (dsDNA)
DNA 1: TCAAATTTCAAATAGAATAAATTTGAAAGTGATAAATGATTAATTATTTT
DNA 2: AAAATAATTAATCATTTATCACTTTCAAATTTATTCTATTTGAAATTTGA
binding result [2]: binds

— doi:10.1101/2020.05.08.085126
